Positions count from the first letter of the chain named. Where two headings read alike, the source gives them in different places.

The results in this text go back to patent publication US20210301005A1 (Genentech, published 2021).

The target of experiment [1] is T1, human TGFβ2, mature receptor-binding domain (human, UniProt P09858 303-414 (pig entry), The mature TGFβ2 is a disulfide-linked homodimer of this 112-residue chain. The 4A11 epitope spans both monomers (p-1207).).
T1 construct: Peprotech; also called TGFb2
T1 sequence: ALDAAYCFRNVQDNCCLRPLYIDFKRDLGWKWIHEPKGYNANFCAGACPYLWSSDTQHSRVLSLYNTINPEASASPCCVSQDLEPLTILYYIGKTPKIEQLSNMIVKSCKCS
The experiment is described as follows: Biacore SPR. For orientation: In SPR one partner is held on a chip, and binding of the other changes the refractive index at the surface.

The target of experiment [2] is T2, mouse TGFβ2, mature peptide (mouse, UniProt P27090 303-414).
T2 construct: mature
T2 sequence (looked up): T1 sequence with S59T, R60K, K94N
The experiment is described as follows: Biacore SPR.

Experiment [3] deals with T3, human TGFβ3, mature dimeric form (human, UniProt P10600 301-412).
T3 construct: Peprotech, expressed in E. coli; also called TGFb3
T3 sequence: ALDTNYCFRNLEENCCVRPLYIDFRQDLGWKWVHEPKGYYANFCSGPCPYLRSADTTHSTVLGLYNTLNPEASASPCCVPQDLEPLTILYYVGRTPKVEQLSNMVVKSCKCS
The experiment is described as follows: BIAcore T200. The gist of the method: (§1)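 Humanized antibodies captured on protein A CM5 chip (~100 RU), then 3-fold serial dilutions of TGFβ (0.02–5 nM) injected in HBS-EP pH 7.4 at 25° C., 50 μl/min. kon and koff from 1:1 Langmuir fit; KD = koff/kon.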

Experiment [4] concerns the target T1, human TGFβ2, mature receptor-binding …. The experiment is described as follows: BIAcore T200. In a few lines:
as §1

Experiment [5] addresses T4, human TGFβ1, mature receptor-binding domain (human, UniProt P01137 279-390).
T4 construct: Peprotech; also called TGFb1
The experiment is described as follows: BIAcore T200. In a few lines:
as §1

Experiment [6] addresses T3, human TGFβ3, mature dimeric form. The experiment is described as follows: cell-based or functional assay.
In experiment [7] the target is T1, human TGFβ2, mature receptor-binding …. The experiment is described as follows: cell-based or functional assay.
The target in experiment [8] is T4, human TGFβ1, mature receptor-binding …. The experiment is described as follows: cell-based or functional assay.
Experiment [9] deals with T1, human TGFβ2, mature receptor-binding …. The experiment is described as follows: cell-based or functional assay. This is another data set of the same source.
Experiment [10] has as its target T2, mouse TGFβ2, mature peptide. The experiment is described as follows: cell-based or functional assay.
Experiment [11] addresses T3, human TGFβ3, mature dimeric form. The experiment is described as follows: BIAcore T200. On the procedure:
(§2) For binding affinity determinations of all humanized 2A10 antibodies, Surface Plasmon Resonance (SPR) measurement with a BIAcore™-T200 instrument was used. Briefly, series S CM5 biosensor chip with protein A was first applied to capture each humanized 2A10 variant to achieve approximately 100 response units (RU) on each flow cell, following by injection of 3-fold serial dilutions of human TGFβ1, TGFβ2 or TGFβ3 (0.02 nM to 5 nM) in HBS-EP buffer (0.01M HEPES pH 7.4, 0.15M NaCl, 3 mM EDTA and 0.05% v/v surfactant P20) at 25° C. with a flow rate of 50 μl/min for kinetics measurement. Association rates (ko.) and dissociation rates (koff) were calculated using a simple one-to-one Langmuir binding model (BIAcore T200 evaluation software version 2.0) to determine the equilibrium dissociation constant (KD), which was calculated as the ratio koff/kₒₙ.
(§3) Binding affinity determinations of all humanized 4A11 antibodies were performed using SPR measurement with a BIAcore™-T200 instrument, as described above in Example 6 ([…]).
The source holds these as a separate data set.

The target in experiment [12] is T1, human TGFβ2, mature receptor-binding …. The experiment is described as follows: BIAcore T200. The protocol:
as §2, §3
The source holds these as a separate data set.

For experiment [13], the target named is T3, human TGFβ3, mature dimeric form. The experiment is described as follows: BIAcore T200. The gist of the method: as §1
The source holds these as a separate data set.

In experiment [14] the target is T1, human TGFβ2, mature receptor-binding …. The experiment is described as follows: BIAcore T200. In a few lines: as §1
The source holds these as a separate data set.

The target of experiment [15] is T4, human TGFβ1, mature receptor-binding …. The experiment is described as follows: BIAcore T200. In a few lines: as §1
The source holds these as a separate data set.

Experiment [16] deals with T3, human TGFβ3, mature dimeric form. The experiment is described as follows: cell-based or functional assay. This is another data set of the same source.
Experiment [17] concerns the target T1, human TGFβ2, mature receptor-binding …. The experiment is described as follows: cell-based or functional assay. This is another data set of the same source.
Experiment [18] concerns the target T4, human TGFβ1, mature receptor-binding …. The experiment is described as follows: cell-based or functional assay. The source holds these as a separate data set.
In experiment [19] the target is T3, human TGFβ3, mature dimeric form. The experiment is described as follows: cell-based or functional assay. This is another data set of the same source.
Experiment [20] has as its target T1, human TGFβ2, mature receptor-binding …. The experiment is described as follows: cell-based or functional assay. This is another data set of the same source.
Experiment [21] deals with T4, human TGFβ1, mature receptor-binding …. The experiment is described as follows: cell-based or functional assay. This is another data set of the same source.

T4 sequence (P01137 279-390 limits assumed): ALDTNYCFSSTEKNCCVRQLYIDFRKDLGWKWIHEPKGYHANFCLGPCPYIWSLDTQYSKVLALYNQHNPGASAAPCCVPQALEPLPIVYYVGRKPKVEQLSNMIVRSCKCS

B1: 4A11 (antibody, V domains shown)
VH: QSLEESGGRLVTPGTPLTLTCTVSGFSLSSYTVNWVRQAPGKGLEWIGYISYGGSAYYASWANGRFTISKTSATVDLKITSPTTEDTATYFCARHMQVGGAPTGSMAAFDPWGPGTLVTVSS
VL: AAVLTQTPSPVSAAVGGTVSISCQSSQSVYNNNYLSWFQQKPGQPPKLLIYGASTLTSGVPSRFKGSGSGTQFTLTISDVQCDDAATYYCAGGYSGSSDKYAFGGGTEVVVKG
notes: anti-TGFβ2/3, recombinant rabbit monoclonal; some paragraphs print the H/L pair as 32/33; also called Rb1.4A11; Rbt 4A11
Turning to B1, the dissociation constant (Kd) (in general, the equilibrium constant for the complex coming apart) in [1] was 8 pM; in experiment [2], < 2 pM; in experiment [3] it was ≤ 1.2 pM; in experiment [4], 1.6 pM; in experiment [5] it was > 5000 pM; in [11], ≤ 1.2 pM. Besides, the dissociation constant (Kd) in experiment [12] was 1.6 pM; in [13] it was 1.2 pM; in [14], 1.6 pM; in experiment [15], > 5000 pM. Moreover, the “HEKBlue TGFβ blocking IC50” value is 60 pM in experiment [6]; 90 pM in [7]; > 200000 pM in experiment [8]; 60 pM in experiment [19]; 90 pM in experiment [20]; > 200000 pM in experiment [21]. In addition, the “IC50 (read off the curve)” value in experiment [9] is ~60 pM; in experiment [10], ~70 pM. Besides, the “Blocking IC50” value in experiment [16] is 30 pM; in experiment [17], 250 pM; in experiment [18], > 500000 pM.
